This is an account of results in paper PMC6798120.

Bounds are passed on as bounds.

Common to all, as to assay: flow cytometry on cells
On the technique in general: Flow cytometry measures light scatter and fluorescence of single cells or particles in a stream.

The target in experiment [1] is MHV-A59 S protein R20A (mouse hepatitis virus A59).
The target of experiment [2] is MHV-A59 S protein I22A (mouse hepatitis virus A59).
Experiment [3] deals with MHV-A59 S protein Y15A/L160A (mouse hepatitis virus A59).

As for soluble receptor mCEACAM1a[1,4], the reduction of receptor binding against WT in experiment [1] is 61%; in experiment [2], 83%; in experiment [3] it was above 65%.
